{"source": "the supplement of paper PMC12042874", "note": "± gives the uncertainty stated by the source.", "data": [{"test": "amyloid nucleation score (Sup35N fusion, yeast selection) (log enrichment); library NNK2; higher = more nucleation; inactive = no reads after selection", "outline": "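Libraries of peptides of 20 random codons fused to Sup35N were expressed in psi-negative yeast and induced 24 hours with 100 μM copper sulfate. Selection was 7 days at 30°C on medium lacking adenine and uracil, and plasmid inserts were Illumina-sequenced before and after selection. Nucleation score is the DiMSum log enrichment of output over input reads, centred on the mode score of non-aggregating sequences, and sequences with under 100 input reads were left out.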", "values": [{"substance": "FCHCFRGYARDHHRMTQLGN", "amyloid nucleation score": "-0.674 ± 0.76"}, {"substance": "DFIEMVLDGCSHGLATVCPT", "amyloid nucleation score": "inactive"}, {"substance": "VDQCPYRFKFRVSYMMVFYM", "amyloid nucleation score": "5.67 ± 0.086"}, {"substance": "FKWALFG", "amyloid nucleation score": "inactive"}, {"substance": "GHCFISEFLGRRVA", "amyloid nucleation score": "2.36 ± 0.08"}, {"substance": "LFSYWSVYSGLREVGPYCMV", "amyloid nucleation score": "0.79 ± 0.21"}, {"substance": "ETMNA", "amyloid nucleation score": "1.38 ± 0.16"}, {"substance": "GTGINLSFLYFAAGVLCSSS", "amyloid nucleation score": "-1.52 ± 1.1"}, {"substance": "TSGFSIIRVIVNYIYALETR", "amyloid nucleation score": "3.86 ± 0.12"}, {"substance": "TLAEFGQQPGRGACMYAVNN", "amyloid nucleation score": "inactive"}, {"substance": "YSEMRDSQAVVAYESRVVKP", "amyloid nucleation score": "0.798 ± 0.46"}, {"substance": "DLYMNEASTALGLGRGFLWG", "amyloid nucleation score": "-0.553 ± 1.1"}, {"substance": "NQALTTSPHSYIRFSCTCMF", "amyloid nucleation score": "3.89 ± 0.14"}, {"substance": "AVKCGNGSEF", "amyloid nucleation score": "-0.066 ± 0.45"}, {"substance": "TSNRRTYGWHDQTCGQGVWY", "amyloid nucleation score": "1.1 ± 0.29"}, {"substance": "RMLLIGIRCLIMSWHMLHN", "amyloid nucleation score": "-0.029 ± 0.37"}, {"substance": "VGSFSTVGCR", "amyloid nucleation score": "0.003 ± 0.36"}, {"substance": "SHCSLEDG", "amyloid nucleation score": "1.22 ± 0.12"}, {"substance": "LYHPACSAFSRSFCVKFLYW", "amyloid nucleation score": "-0.837 ± 0.61"}, {"substance": "NYSYMSMHTSCLSKTPSSRA", "amyloid nucleation score": "-1.42 ± 1.1"}, {"substance": "ITYPVESLYNAWSGGPVTDG", "amyloid nucleation score": "0.164 ± 0.8"}, {"substance": "ILGSARYIVCGQVSEMRSAG", "amyloid nucleation score": "0.367 ± 0.49"}, {"substance": "SKLMQVRRGVLSGYLSESDE", "amyloid nucleation score": "-0.149 ± 0.55"}, {"substance": "ARDRNSFGLDCAVFMSYFTT", "amyloid nucleation score": "3.34 ± 0.11"}, {"substance": "GGISKIFVWEVSIVHYSNIS", "amyloid nucleation score": "inactive"}, {"substance": "WAKCRLTIMTKWSLLCGGLG", "amyloid nucleation score": "1.43 ± 0.34"}, {"substance": "APSLIYFNVST", "amyloid nucleation score": "3.75 ± 0.13"}, {"substance": "DWLNSVFFLPFKCGLCVLRA", "amyloid nucleation score": "0.06 ± 0.4"}, {"substance": "TYKTGDACVLVLPPHMADPR", "amyloid nucleation score": "-0.446 ± 1.1"}, {"substance": "TGTPYRF", "amyloid nucleation score": "1.11 ± 0.23"}, {"substance": "KKSFGLLENIMVSDLFPNSS", "amyloid nucleation score": "inactive"}, {"substance": "SLLYQQDGCNLVVFYQFLV", "amyloid nucleation score": "2.52 ± 0.13"}, {"substance": "LWITTGNGGVPV", "amyloid nucleation score": "-0.144 ± 0.45"}, {"substance": "TLHVVQFWKSCI", "amyloid nucleation score": "-0.343 ± 0.45"}, {"substance": "CILRGLVASSNNSGSIGAMK", "amyloid nucleation score": "0.361 ± 0.23"}, {"substance": "AVEAYNMSNYLLRYISGSV", "amyloid nucleation score": "-0.109 ± 0.65"}, {"substance": "QCSHI", "amyloid nucleation score": "-0.193 ± 0.28"}, {"substance": "SYPFYVFSSNASSTAVIKLT", "amyloid nucleation score": "1.07 ± 0.19"}, {"substance": "NSLMSFWVSVV", "amyloid nucleation score": "0.208 ± 0.34"}, {"substance": "AHQHWQRGFEEHPEIRFIHW", "amyloid nucleation score": "4.29 ± 0.11"}, {"substance": "TFGLWPPQGMAIRGMRVNMN", "amyloid nucleation score": "inactive"}, {"substance": "IWFGVYIYFVDFRVILNRLL", "amyloid nucleation score": "inactive"}, {"substance": "FWGIVKYMWIFSTTYLNVFL", "amyloid nucleation score": "3.22 ± 0.11"}, {"substance": "GMGIHFKASGRGPLIVGERD", "amyloid nucleation score": "0.75 ± 0.44"}, {"substance": "FANGRFMNPSHGLYSLPLKR", "amyloid nucleation score": "0.09 ± 0.51"}, {"substance": "MVDKNNAKINHSR", "amyloid nucleation score": "inactive"}, {"substance": "THTSLLSLVP", "amyloid nucleation score": "-0.291 ± 0.76"}, {"substance": "YFWSFYEVISFDCYHLIIFS", "amyloid nucleation score": "0.004 ± 0.18"}, {"substance": "MYKVPTCPMFMVDNYYKLLN", "amyloid nucleation score": "inactive"}, {"substance": "FVQSVGNMVSNSGRAGGMPG", "amyloid nucleation score": "0.444 ± 0.31"}, {"substance": "AETLPFWGNG", "amyloid nucleation score": "0.695 ± 0.57"}, {"substance": "HLEMRPAMRIPLLRTDFWKV", "amyloid nucleation score": "0.665 ± 0.19"}, {"substance": "YEHLDIGNHKLGRCNRNFIA", "amyloid nucleation score": "-0.191 ± 1.1"}, {"substance": "YSFCKCVIVGIWFRLGWCQA", "amyloid nucleation score": "inactive"}, {"substance": "TRRGF", "amyloid nucleation score": "-0.357 ± 0.3"}, {"substance": "IIILYCGRYLINWTFLSCAY", "amyloid nucleation score": "inactive"}, {"substance": "YLKRPRPRRLGSP", "amyloid nucleation score": "0.405 ± 0.33"}, {"substance": "IRHNVKRLGATNVW", "amyloid nucleation score": "-0.09 ± 0.76"}, {"substance": "RILLLDLRYYCTTP", "amyloid nucleation score": "inactive"}, {"substance": "LQVRSDSMNGFNW", "amyloid nucleation score": "-0.61 ± 1.1"}, {"substance": "SDGEISGEGY", "amyloid nucleation score": "-0.368 ± 1.1"}, {"substance": "RVIWRQWYNTL", "amyloid nucleation score": "1.61 ± 0.19"}, {"substance": "AWESIAFPCKVIYCYLRWTL", "amyloid nucleation score": "inactive"}, {"substance": "DYVRCVDLSN", "amyloid nucleation score": "-0.863 ± 0.63"}, {"substance": "SHYTMALSRDIGYGDITKSD", "amyloid nucleation score": "-0.675 ± 1.1"}, {"substance": "LAHHMF", "amyloid nucleation score": "0.429 ± 0.8"}, {"substance": "NFHGDAYLESVRWIHIRNKR", "amyloid nucleation score": "-0.735 ± 0.48"}, {"substance": "KGFRMRAWWRVGVLDCDAGT", "amyloid nucleation score": "0.082 ± 1.1"}, {"substance": "SKAECLMH", "amyloid nucleation score": "-0.547 ± 1.1"}, {"substance": "LVKTFYKKWIVREREFWILR", "amyloid nucleation score": "-0.176 ± 1.1"}]}]}
